Measured values taken from US20150344570A1 (published 2015).

T1: FcγRIIa R extracellular domain with C-terminal His tag (human, UniProt P12318 34-217)
T1 construct: extracellular domain; also called FcgRIIa R; 2aR; not shown: His tag at the C terminus
T1 sequence (looked up): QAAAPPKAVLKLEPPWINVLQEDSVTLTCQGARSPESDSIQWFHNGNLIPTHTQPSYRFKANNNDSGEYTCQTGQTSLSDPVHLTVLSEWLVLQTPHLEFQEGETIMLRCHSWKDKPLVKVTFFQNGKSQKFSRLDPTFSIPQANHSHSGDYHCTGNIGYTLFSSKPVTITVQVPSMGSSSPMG

T2: FcγRIIb extracellular domain with C-terminal His tag (human, UniProt P31994 43-217)
T2 construct: extracellular domain; also called FcgRIIb; 2b; not shown: His tag at the C terminus
T2 sequence (looked up): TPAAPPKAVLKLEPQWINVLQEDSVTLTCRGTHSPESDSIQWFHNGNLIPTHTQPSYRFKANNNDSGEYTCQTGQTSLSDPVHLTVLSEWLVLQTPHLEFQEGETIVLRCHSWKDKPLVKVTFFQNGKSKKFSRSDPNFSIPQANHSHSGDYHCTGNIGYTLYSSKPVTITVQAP


Tests used:
[1] = target: T1, FcγRIIa R extracellular domain with …; assay: SPR (Biacore), relative FcγRIIa R binding, GpH7-B3/GpL16-k0 = 100
Description: Analysis of interaction between objective antibody and the FcγR was carried out using Biacore T100 (GE Healthcare). HBS-EP+ (GE Healthcare) was used as the running buffer, and the measurement temperature was set to 25° C. Chips produced by immobilizing the antigen peptide by the amine coupling method to a Series S Sencor Chip CM5 (GE Healthcare), or alternatively, chips produced by allowing preliminarily biotinylated antigen peptides to interact with and immobilize onto a Series S Sensor Chip SA (certified) (GE Healthcare) were used. Antibodies of interest were captured onto an antigen peptide-immobilized chip, and allowed to interact to each FcγR diluted with running buffer. To regenerate and repeatedly use the chip, the antibodies captured on the chip were washed off by reacting 10 mM glycine-HCl, pH 1.5.

[2] = target: T2, FcγRIIb extracellular domain with …; assay: SPR, relative binding, HeCon Ab = 100

Binder	Ho/Con_2aR [1]	He/Con_2b [2]
GpH7-B3 variant S337_02A/GpL16-k0 (antibody, human IgG1, kappa, homodimerized: alteration in both H chains; also called Ho Ab S337_02A) heavy: not shown light: DIVMTQSPLSLPVTPGEPASISCQASESLVHSNRNTYLHWYLQKPGQSPQLLIYKVSNRFSGVPDRFSGSGSGTDFTLKISRVEAEDVGVYYCSQNTHVPPTFGQGTKVEIERTVAAPSVFIFPPSDEQLKSGTASVVCLLNNFYPREAKVQWKVDNALQSGNSQESVTEQDSKDSTYSLSSTLTLSKADYEKHKVYACEVTHQGLSSPVTKSFNRGEC	102 % of control	
GpH7-A5/GpH7-B3 variant T335_15Y/GpL16-k0 (antibody, human IgG1, kappa, also called He Ab T335_15Y) heavy 1: not shown heavy 2: not shown light: DIVMTQSPLSLPVTPGEPASISCQASESLVHSNRNTYLHWYLQKPGQSPQLLIYKVSNRFSGVPDRFSGSGSGTDFTLKISRVEAEDVGVYYCSQNTHVPPTFGQGTKVEIERTVAAPSVFIFPPSDEQLKSGTASVVCLLNNFYPREAKVQWKVDNALQSGNSQESVTEQDSKDSTYSLSSTLTLSKADYEKHKVYACEVTHQGLSSPVTKSFNRGEC		108 % of control
GpH7-A5/GpH7-B3 variant T335_07I/GpL16-k0 (antibody, human IgG1, kappa, also called He Ab T335_07I) heavy 1: not shown heavy 2: not shown light: DIVMTQSPLSLPVTPGEPASISCQASESLVHSNRNTYLHWYLQKPGQSPQLLIYKVSNRFSGVPDRFSGSGSGTDFTLKISRVEAEDVGVYYCSQNTHVPPTFGQGTKVEIERTVAAPSVFIFPPSDEQLKSGTASVVCLLNNFYPREAKVQWKVDNALQSGNSQESVTEQDSKDSTYSLSSTLTLSKADYEKHKVYACEVTHQGLSSPVTKSFNRGEC		106 % of control
GpH7-A5/GpH7-B3 variant S239_03V/GpL16-k0 (antibody, human IgG1, kappa, also called He Ab S239_03V) heavy 1: not shown heavy 2: not shown light: DIVMTQSPLSLPVTPGEPASISCQASESLVHSNRNTYLHWYLQKPGQSPQLLIYKVSNRFSGVPDRFSGSGSGTDFTLKISRVEAEDVGVYYCSQNTHVPPTFGQGTKVEIERTVAAPSVFIFPPSDEQLKSGTASVVCLLNNFYPREAKVQWKVDNALQSGNSQESVTEQDSKDSTYSLSSTLTLSKADYEKHKVYACEVTHQGLSSPVTKSFNRGEC		108 % of control
GpH7-A5/GpH7-B3 variant P331_15Y/GpL16-k0 (antibody, human IgG1, kappa, also called He Ab P331_15Y) heavy 1: not shown heavy 2: not shown light: DIVMTQSPLSLPVTPGEPASISCQASESLVHSNRNTYLHWYLQKPGQSPQLLIYKVSNRFSGVPDRFSGSGSGTDFTLKISRVEAEDVGVYYCSQNTHVPPTFGQGTKVEIERTVAAPSVFIFPPSDEQLKSGTASVVCLLNNFYPREAKVQWKVDNALQSGNSQESVTEQDSKDSTYSLSSTLTLSKADYEKHKVYACEVTHQGLSSPVTKSFNRGEC		114 % of control
GpH7-B3 variant A327_10E/GpL16-k0 (antibody, human IgG1, kappa, homodimerized: alteration in both H chains; also called Ho Ab A327_10E) heavy: not shown light: DIVMTQSPLSLPVTPGEPASISCQASESLVHSNRNTYLHWYLQKPGQSPQLLIYKVSNRFSGVPDRFSGSGSGTDFTLKISRVEAEDVGVYYCSQNTHVPPTFGQGTKVEIERTVAAPSVFIFPPSDEQLKSGTASVVCLLNNFYPREAKVQWKVDNALQSGNSQESVTEQDSKDSTYSLSSTLTLSKADYEKHKVYACEVTHQGLSSPVTKSFNRGEC	104 % of control	
GpH7-A5/GpH7-B3 variant S267_19Q/GpL16-k0 (antibody, human IgG1, kappa, also called He Ab S267_19Q) heavy 1: not shown heavy 2: not shown light: DIVMTQSPLSLPVTPGEPASISCQASESLVHSNRNTYLHWYLQKPGQSPQLLIYKVSNRFSGVPDRFSGSGSGTDFTLKISRVEAEDVGVYYCSQNTHVPPTFGQGTKVEIERTVAAPSVFIFPPSDEQLKSGTASVVCLLNNFYPREAKVQWKVDNALQSGNSQESVTEQDSKDSTYSLSSTLTLSKADYEKHKVYACEVTHQGLSSPVTKSFNRGEC		218 % of control
GpH7-A5/GpH7-B3 variant P238_09D/GpL16-k0 (antibody, human IgG1, kappa, also called He Ab P238_09D) heavy 1: not shown heavy 2: not shown light: DIVMTQSPLSLPVTPGEPASISCQASESLVHSNRNTYLHWYLQKPGQSPQLLIYKVSNRFSGVPDRFSGSGSGTDFTLKISRVEAEDVGVYYCSQNTHVPPTFGQGTKVEIERTVAAPSVFIFPPSDEQLKSGTASVVCLLNNFYPREAKVQWKVDNALQSGNSQESVTEQDSKDSTYSLSSTLTLSKADYEKHKVYACEVTHQGLSSPVTKSFNRGEC		221 % of control
GpH7-A5/GpH7-B3 variant S239_10E/GpL16-k0 (antibody, human IgG1, kappa, also called He Ab S239_10E) heavy 1: not shown heavy 2: not shown light: DIVMTQSPLSLPVTPGEPASISCQASESLVHSNRNTYLHWYLQKPGQSPQLLIYKVSNRFSGVPDRFSGSGSGTDFTLKISRVEAEDVGVYYCSQNTHVPPTFGQGTKVEIERTVAAPSVFIFPPSDEQLKSGTASVVCLLNNFYPREAKVQWKVDNALQSGNSQESVTEQDSKDSTYSLSSTLTLSKADYEKHKVYACEVTHQGLSSPVTKSFNRGEC		181 % of control
GpH7-A5/GpH7-B3 variant V266_06M/GpL16-k0 (antibody, human IgG1, kappa, also called He Ab V266_06M) heavy 1: not shown heavy 2: not shown light: DIVMTQSPLSLPVTPGEPASISCQASESLVHSNRNTYLHWYLQKPGQSPQLLIYKVSNRFSGVPDRFSGSGSGTDFTLKISRVEAEDVGVYYCSQNTHVPPTFGQGTKVEIERTVAAPSVFIFPPSDEQLKSGTASVVCLLNNFYPREAKVQWKVDNALQSGNSQESVTEQDSKDSTYSLSSTLTLSKADYEKHKVYACEVTHQGLSSPVTKSFNRGEC		251 % of control

Other lines, results leading:

Ho/Con_2aR [1]	He/Con_2b [2]	Binder
	108 % of control	GpH7-A5/GpH7-B3 variant T335_10E/GpL16-k0 (antibody, human IgG1, kappa, also called He Ab T335_10E) heavy 1: not shown heavy 2: not shown light: DIVMTQSPLSLPVTPGEPASISCQASESLVHSNRNTYLHWYLQKPGQSPQLLIYKVSNRFSGVPDRFSGSGSGTDFTLKISRVEAEDVGVYYCSQNTHVPPTFGQGTKVEIERTVAAPSVFIFPPSDEQLKSGTASVVCLLNNFYPREAKVQWKVDNALQSGNSQESVTEQDSKDSTYSLSSTLTLSKADYEKHKVYACEVTHQGLSSPVTKSFNRGEC
	116 % of control	GpH7-A5/GpH7-B3 variant P331_16H/GpL16-k0 (antibody, human IgG1, kappa, also called He Ab P331_16H) heavy 1: not shown heavy 2: not shown light: DIVMTQSPLSLPVTPGEPASISCQASESLVHSNRNTYLHWYLQKPGQSPQLLIYKVSNRFSGVPDRFSGSGSGTDFTLKISRVEAEDVGVYYCSQNTHVPPTFGQGTKVEIERTVAAPSVFIFPPSDEQLKSGTASVVCLLNNFYPREAKVQWKVDNALQSGNSQESVTEQDSKDSTYSLSSTLTLSKADYEKHKVYACEVTHQGLSSPVTKSFNRGEC
	312 % of control	GpH7-A5/GpH7-B3 variant P238_04F/GpL16-k0 (antibody, human IgG1, kappa, also called He Ab P238_04F) heavy 1: not shown heavy 2: not shown light: DIVMTQSPLSLPVTPGEPASISCQASESLVHSNRNTYLHWYLQKPGQSPQLLIYKVSNRFSGVPDRFSGSGSGTDFTLKISRVEAEDVGVYYCSQNTHVPPTFGQGTKVEIERTVAAPSVFIFPPSDEQLKSGTASVVCLLNNFYPREAKVQWKVDNALQSGNSQESVTEQDSKDSTYSLSSTLTLSKADYEKHKVYACEVTHQGLSSPVTKSFNRGEC
120 % of control		GpH7-B3 variant A327_09D/GpL16-k0 (antibody, human IgG1, kappa, homodimerized: alteration in both H chains; also called Ho Ab A327_09D) heavy: not shown light: DIVMTQSPLSLPVTPGEPASISCQASESLVHSNRNTYLHWYLQKPGQSPQLLIYKVSNRFSGVPDRFSGSGSGTDFTLKISRVEAEDVGVYYCSQNTHVPPTFGQGTKVEIERTVAAPSVFIFPPSDEQLKSGTASVVCLLNNFYPREAKVQWKVDNALQSGNSQESVTEQDSKDSTYSLSSTLTLSKADYEKHKVYACEVTHQGLSSPVTKSFNRGEC
	210 % of control	GpH7-A5/GpH7-B3 variant S267_06M/GpL16-k0 (antibody, human IgG1, kappa, also called He Ab S267_06M) heavy 1: not shown heavy 2: not shown light: DIVMTQSPLSLPVTPGEPASISCQASESLVHSNRNTYLHWYLQKPGQSPQLLIYKVSNRFSGVPDRFSGSGSGTDFTLKISRVEAEDVGVYYCSQNTHVPPTFGQGTKVEIERTVAAPSVFIFPPSDEQLKSGTASVVCLLNNFYPREAKVQWKVDNALQSGNSQESVTEQDSKDSTYSLSSTLTLSKADYEKHKVYACEVTHQGLSSPVTKSFNRGEC
	103 % of control	GpH7-A5/GpH7-B3 variant Y296_20W/GpL16-k0 (antibody, human IgG1, kappa, also called He Ab Y296_20W) heavy 1: not shown heavy 2: not shown light: DIVMTQSPLSLPVTPGEPASISCQASESLVHSNRNTYLHWYLQKPGQSPQLLIYKVSNRFSGVPDRFSGSGSGTDFTLKISRVEAEDVGVYYCSQNTHVPPTFGQGTKVEIERTVAAPSVFIFPPSDEQLKSGTASVVCLLNNFYPREAKVQWKVDNALQSGNSQESVTEQDSKDSTYSLSSTLTLSKADYEKHKVYACEVTHQGLSSPVTKSFNRGEC
	111 % of control	GpH7-A5/GpH7-B3 variant P331_20W/GpL16-k0 (antibody, human IgG1, kappa, also called He Ab P331_20W) heavy 1: not shown heavy 2: not shown light: DIVMTQSPLSLPVTPGEPASISCQASESLVHSNRNTYLHWYLQKPGQSPQLLIYKVSNRFSGVPDRFSGSGSGTDFTLKISRVEAEDVGVYYCSQNTHVPPTFGQGTKVEIERTVAAPSVFIFPPSDEQLKSGTASVVCLLNNFYPREAKVQWKVDNALQSGNSQESVTEQDSKDSTYSLSSTLTLSKADYEKHKVYACEVTHQGLSSPVTKSFNRGEC
	105 % of control	GpH7-A5/GpH7-B3 variant S337_16H/GpL16-k0 (antibody, human IgG1, kappa, also called He Ab S337_16H) heavy 1: not shown heavy 2: not shown light: DIVMTQSPLSLPVTPGEPASISCQASESLVHSNRNTYLHWYLQKPGQSPQLLIYKVSNRFSGVPDRFSGSGSGTDFTLKISRVEAEDVGVYYCSQNTHVPPTFGQGTKVEIERTVAAPSVFIFPPSDEQLKSGTASVVCLLNNFYPREAKVQWKVDNALQSGNSQESVTEQDSKDSTYSLSSTLTLSKADYEKHKVYACEVTHQGLSSPVTKSFNRGEC
	112 % of control	GpH7-A5/GpH7-B3 variant S324_06M/GpL16-k0 (antibody, human IgG1, kappa, also called He Ab S324_06M) heavy 1: not shown heavy 2: not shown light: DIVMTQSPLSLPVTPGEPASISCQASESLVHSNRNTYLHWYLQKPGQSPQLLIYKVSNRFSGVPDRFSGSGSGTDFTLKISRVEAEDVGVYYCSQNTHVPPTFGQGTKVEIERTVAAPSVFIFPPSDEQLKSGTASVVCLLNNFYPREAKVQWKVDNALQSGNSQESVTEQDSKDSTYSLSSTLTLSKADYEKHKVYACEVTHQGLSSPVTKSFNRGEC
	218 % of control	GpH7-A5/GpH7-B3 variant P238_15Y/GpL16-k0 (antibody, human IgG1, kappa, also called He Ab P238_15Y) heavy 1: not shown heavy 2: not shown light: DIVMTQSPLSLPVTPGEPASISCQASESLVHSNRNTYLHWYLQKPGQSPQLLIYKVSNRFSGVPDRFSGSGSGTDFTLKISRVEAEDVGVYYCSQNTHVPPTFGQGTKVEIERTVAAPSVFIFPPSDEQLKSGTASVVCLLNNFYPREAKVQWKVDNALQSGNSQESVTEQDSKDSTYSLSSTLTLSKADYEKHKVYACEVTHQGLSSPVTKSFNRGEC
